Assay results published in patent publication US20180155451A1 (published 2018).

T1: FcγRIIb, extracellular domain with C-terminal His tag (human, UniProt P31994 43-217)
T1 construct: extracellular domain; Expressed in FreeStyle293 cells; analyte in the Biacore assay; also called FcgRIIb; 2b; not shown: His tag at the C terminus
T1 sequence (looked up): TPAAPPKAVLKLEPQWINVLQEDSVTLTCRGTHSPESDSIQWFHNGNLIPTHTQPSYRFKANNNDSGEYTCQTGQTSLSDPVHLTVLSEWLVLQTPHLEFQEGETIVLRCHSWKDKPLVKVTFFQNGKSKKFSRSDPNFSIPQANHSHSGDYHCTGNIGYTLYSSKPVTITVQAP

T2: FcγRIIa H (FcγRIIa type H, His at position 131), extracellular domain with C-terminal His tag (human, UniProt P12318 34-217)
T2 construct: extracellular domain; Expressed in FreeStyle293 cells; analyte in the Biacore assay; also called FcgRIIa H; 2aH; not shown: His tag at the C terminus
T2 sequence (looked up): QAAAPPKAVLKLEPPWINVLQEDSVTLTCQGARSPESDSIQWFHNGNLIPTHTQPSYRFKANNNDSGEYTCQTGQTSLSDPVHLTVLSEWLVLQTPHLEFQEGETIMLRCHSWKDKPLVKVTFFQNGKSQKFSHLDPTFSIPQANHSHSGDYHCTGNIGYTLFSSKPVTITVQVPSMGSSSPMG


Key:
[1] = target: T1, FcγRIIb, extracellular domain with …; experiment: SPR Biacore, captured antibody, FcgR analyte; GpH7-A5/GpH7-B3/GpL16-k0 = 100
[2] = target: T2, FcγRIIa H (FcγRIIa type H, His at …); experiment: as above
[3] = target: T2, FcγRIIa H (FcγRIIa type H, His at …); experiment: SPR Biacore; He/Con_2aH divided by He/Con_2b (reference: FcgRIIb)

He/Con_2b [1] | He/Con_2aH [2] | He_2aH/2b (IIaH/IIb) [3] | Binder
80.6 % of HeCon Ab | 98.1 % of HeCon Ab | 1.22 | GpH7-A5/GpH7-B3 variant E333_11K/GpL16-k0 (antibody, human IgG1, kappa, He Ab; IgG1; mutation in one H chain only; also called He Ab) heavy 1: not shown heavy 2: not shown light: DIVMTQSPLSLPVTPGEPASISCQASESLVHSNRNTYLHWYLQKPGQSPQLLIYKVSNRFSGVPDRFSGSGSGTDFTLKISRVEAEDVGVYYCSQNTHVPPTFGQGTKVEIERTVAAPSVFIFPPSDEQLKSGTASVVCLLNNFYPREAKVQWKVDNALQSGNSQESVTEQDSKDSTYSLSSTLTLSKADYEKHKVYACEVTHQGLSSPVTKSFNRGEC
54.2 % of HeCon Ab | 67.3 % of HeCon Ab | 1.24 | GpH7-A5/GpH7-B3 variant A327_19Q/GpL16-k0 (antibody, human IgG1, kappa, He Ab; IgG1; mutation in one H chain only; also called He Ab) heavy 1: not shown heavy 2: not shown light: DIVMTQSPLSLPVTPGEPASISCQASESLVHSNRNTYLHWYLQKPGQSPQLLIYKVSNRFSGVPDRFSGSGSGTDFTLKISRVEAEDVGVYYCSQNTHVPPTFGQGTKVEIERTVAAPSVFIFPPSDEQLKSGTASVVCLLNNFYPREAKVQWKVDNALQSGNSQESVTEQDSKDSTYSLSSTLTLSKADYEKHKVYACEVTHQGLSSPVTKSFNRGEC
81.8 % of HeCon Ab | 101 % of HeCon Ab | 1.23 | GpH7-A5/GpH7-B3 variant E333_13S/GpL16-k0 (antibody, human IgG1, kappa, He Ab; IgG1; mutation in one H chain only; also called He Ab) heavy 1: not shown heavy 2: not shown light: DIVMTQSPLSLPVTPGEPASISCQASESLVHSNRNTYLHWYLQKPGQSPQLLIYKVSNRFSGVPDRFSGSGSGTDFTLKISRVEAEDVGVYYCSQNTHVPPTFGQGTKVEIERTVAAPSVFIFPPSDEQLKSGTASVVCLLNNFYPREAKVQWKVDNALQSGNSQESVTEQDSKDSTYSLSSTLTLSKADYEKHKVYACEVTHQGLSSPVTKSFNRGEC
48.9 % of HeCon Ab | 87.8 % of HeCon Ab | 1.8 | GpH7-A5/GpH7-B3 variant I332_12R/GpL16-k0 (antibody, human IgG1, kappa, He Ab; IgG1; mutation in one H chain only; also called He Ab) heavy 1: not shown heavy 2: not shown light: DIVMTQSPLSLPVTPGEPASISCQASESLVHSNRNTYLHWYLQKPGQSPQLLIYKVSNRFSGVPDRFSGSGSGTDFTLKISRVEAEDVGVYYCSQNTHVPPTFGQGTKVEIERTVAAPSVFIFPPSDEQLKSGTASVVCLLNNFYPREAKVQWKVDNALQSGNSQESVTEQDSKDSTYSLSSTLTLSKADYEKHKVYACEVTHQGLSSPVTKSFNRGEC
67.1 % of HeCon Ab | 87.3 % of HeCon Ab | 1.3 | GpH7-A5/GpH7-B3 variant A330_07I/GpL16-k0 (antibody, human IgG1, kappa, He Ab; IgG1; mutation in one H chain only; also called He Ab) heavy 1: not shown heavy 2: not shown light: DIVMTQSPLSLPVTPGEPASISCQASESLVHSNRNTYLHWYLQKPGQSPQLLIYKVSNRFSGVPDRFSGSGSGTDFTLKISRVEAEDVGVYYCSQNTHVPPTFGQGTKVEIERTVAAPSVFIFPPSDEQLKSGTASVVCLLNNFYPREAKVQWKVDNALQSGNSQESVTEQDSKDSTYSLSSTLTLSKADYEKHKVYACEVTHQGLSSPVTKSFNRGEC
81.4 % of HeCon Ab | 97.7 % of HeCon Ab | 1.2 | GpH7-A5/GpH7-B3 variant E333_01G/GpL16-k0 (antibody, human IgG1, kappa, He Ab; IgG1; mutation in one H chain only; also called He Ab) heavy 1: not shown heavy 2: not shown light: DIVMTQSPLSLPVTPGEPASISCQASESLVHSNRNTYLHWYLQKPGQSPQLLIYKVSNRFSGVPDRFSGSGSGTDFTLKISRVEAEDVGVYYCSQNTHVPPTFGQGTKVEIERTVAAPSVFIFPPSDEQLKSGTASVVCLLNNFYPREAKVQWKVDNALQSGNSQESVTEQDSKDSTYSLSSTLTLSKADYEKHKVYACEVTHQGLSSPVTKSFNRGEC

Second part, the binder before the results:

Binder | He/Con_2b [1] | He/Con_2aH [2] | He_2aH/2b (IIaH/IIb) [3]
GpH7-A5/GpH7-B3 variant P329_01G/GpL16-k0 (antibody, human IgG1, kappa, He Ab; IgG1; mutation in one H chain only; also called He Ab) heavy 1: not shown heavy 2: not shown light: DIVMTQSPLSLPVTPGEPASISCQASESLVHSNRNTYLHWYLQKPGQSPQLLIYKVSNRFSGVPDRFSGSGSGTDFTLKISRVEAEDVGVYYCSQNTHVPPTFGQGTKVEIERTVAAPSVFIFPPSDEQLKSGTASVVCLLNNFYPREAKVQWKVDNALQSGNSQESVTEQDSKDSTYSLSSTLTLSKADYEKHKVYACEVTHQGLSSPVTKSFNRGEC | 41.7 % of HeCon Ab | 54.9 % of HeCon Ab | 1.32
GpH7-A5/GpH7-B3 variant A330_08L/GpL16-k0 (antibody, human IgG1, kappa, He Ab; IgG1; mutation in one H chain only; also called He Ab) heavy 1: not shown heavy 2: not shown light: DIVMTQSPLSLPVTPGEPASISCQASESLVHSNRNTYLHWYLQKPGQSPQLLIYKVSNRFSGVPDRFSGSGSGTDFTLKISRVEAEDVGVYYCSQNTHVPPTFGQGTKVEIERTVAAPSVFIFPPSDEQLKSGTASVVCLLNNFYPREAKVQWKVDNALQSGNSQESVTEQDSKDSTYSLSSTLTLSKADYEKHKVYACEVTHQGLSSPVTKSFNRGEC | 70.5 % of HeCon Ab | 87.6 % of HeCon Ab | 1.24
GpH7-A5/GpH7-B3 variant I332_03V/GpL16-k0 (antibody, human IgG1, kappa, He Ab; IgG1; mutation in one H chain only; also called He Ab) heavy 1: not shown heavy 2: not shown light: DIVMTQSPLSLPVTPGEPASISCQASESLVHSNRNTYLHWYLQKPGQSPQLLIYKVSNRFSGVPDRFSGSGSGTDFTLKISRVEAEDVGVYYCSQNTHVPPTFGQGTKVEIERTVAAPSVFIFPPSDEQLKSGTASVVCLLNNFYPREAKVQWKVDNALQSGNSQESVTEQDSKDSTYSLSSTLTLSKADYEKHKVYACEVTHQGLSSPVTKSFNRGEC | 80.7 % of HeCon Ab | 105 % of HeCon Ab | 1.3
GpH7-A5/GpH7-B3 variant A330_18N/GpL16-k0 (antibody, human IgG1, kappa, He Ab; IgG1; mutation in one H chain only; also called He Ab) heavy 1: not shown heavy 2: not shown light: DIVMTQSPLSLPVTPGEPASISCQASESLVHSNRNTYLHWYLQKPGQSPQLLIYKVSNRFSGVPDRFSGSGSGTDFTLKISRVEAEDVGVYYCSQNTHVPPTFGQGTKVEIERTVAAPSVFIFPPSDEQLKSGTASVVCLLNNFYPREAKVQWKVDNALQSGNSQESVTEQDSKDSTYSLSSTLTLSKADYEKHKVYACEVTHQGLSSPVTKSFNRGEC | 63.7 % of HeCon Ab | 81.6 % of HeCon Ab | 1.28
GpH7-A5/GpH7-B3 variant A330_14T/GpL16-k0 (antibody, human IgG1, kappa, He Ab; IgG1; mutation in one H chain only; also called He Ab) heavy 1: not shown heavy 2: not shown light: DIVMTQSPLSLPVTPGEPASISCQASESLVHSNRNTYLHWYLQKPGQSPQLLIYKVSNRFSGVPDRFSGSGSGTDFTLKISRVEAEDVGVYYCSQNTHVPPTFGQGTKVEIERTVAAPSVFIFPPSDEQLKSGTASVVCLLNNFYPREAKVQWKVDNALQSGNSQESVTEQDSKDSTYSLSSTLTLSKADYEKHKVYACEVTHQGLSSPVTKSFNRGEC | 77.9 % of HeCon Ab | 94.5 % of HeCon Ab | 1.21
GpH7-A5/GpH7-B3 variant A327_04F/GpL16-k0 (antibody, human IgG1, kappa, He Ab; IgG1; mutation in one H chain only; also called He Ab) heavy 1: not shown heavy 2: not shown light: DIVMTQSPLSLPVTPGEPASISCQASESLVHSNRNTYLHWYLQKPGQSPQLLIYKVSNRFSGVPDRFSGSGSGTDFTLKISRVEAEDVGVYYCSQNTHVPPTFGQGTKVEIERTVAAPSVFIFPPSDEQLKSGTASVVCLLNNFYPREAKVQWKVDNALQSGNSQESVTEQDSKDSTYSLSSTLTLSKADYEKHKVYACEVTHQGLSSPVTKSFNRGEC | 63.7 % of HeCon Ab | 84.4 % of HeCon Ab | 1.32
GpH7-A5/GpH7-B3 variant E333_18N/GpL16-k0 (antibody, human IgG1, kappa, He Ab; IgG1; mutation in one H chain only; also called He Ab) heavy 1: not shown heavy 2: not shown light: DIVMTQSPLSLPVTPGEPASISCQASESLVHSNRNTYLHWYLQKPGQSPQLLIYKVSNRFSGVPDRFSGSGSGTDFTLKISRVEAEDVGVYYCSQNTHVPPTFGQGTKVEIERTVAAPSVFIFPPSDEQLKSGTASVVCLLNNFYPREAKVQWKVDNALQSGNSQESVTEQDSKDSTYSLSSTLTLSKADYEKHKVYACEVTHQGLSSPVTKSFNRGEC | 76.1 % of HeCon Ab | 96.2 % of HeCon Ab | 1.26
GpH7-A5/GpH7-B3 variant A330_13S/GpL16-k0 (antibody, human IgG1, kappa, He Ab; IgG1; mutation in one H chain only; also called He Ab) heavy 1: not shown heavy 2: not shown light: DIVMTQSPLSLPVTPGEPASISCQASESLVHSNRNTYLHWYLQKPGQSPQLLIYKVSNRFSGVPDRFSGSGSGTDFTLKISRVEAEDVGVYYCSQNTHVPPTFGQGTKVEIERTVAAPSVFIFPPSDEQLKSGTASVVCLLNNFYPREAKVQWKVDNALQSGNSQESVTEQDSKDSTYSLSSTLTLSKADYEKHKVYACEVTHQGLSSPVTKSFNRGEC | 41.3 % of HeCon Ab | 65.4 % of HeCon Ab | 1.58
GpH7-A5/GpH7-B3 variant A327_06M/GpL16-k0 (antibody, human IgG1, kappa, He Ab; IgG1; mutation in one H chain only; also called He Ab) heavy 1: not shown heavy 2: not shown light: DIVMTQSPLSLPVTPGEPASISCQASESLVHSNRNTYLHWYLQKPGQSPQLLIYKVSNRFSGVPDRFSGSGSGTDFTLKISRVEAEDVGVYYCSQNTHVPPTFGQGTKVEIERTVAAPSVFIFPPSDEQLKSGTASVVCLLNNFYPREAKVQWKVDNALQSGNSQESVTEQDSKDSTYSLSSTLTLSKADYEKHKVYACEVTHQGLSSPVTKSFNRGEC | 59.5 % of HeCon Ab | 75.5 % of HeCon Ab | 1.27
GpH7-A5/GpH7-B3 variant A330_03V/GpL16-k0 (antibody, human IgG1, kappa, He Ab; IgG1; mutation in one H chain only; also called He Ab) heavy 1: not shown heavy 2: not shown light: DIVMTQSPLSLPVTPGEPASISCQASESLVHSNRNTYLHWYLQKPGQSPQLLIYKVSNRFSGVPDRFSGSGSGTDFTLKISRVEAEDVGVYYCSQNTHVPPTFGQGTKVEIERTVAAPSVFIFPPSDEQLKSGTASVVCLLNNFYPREAKVQWKVDNALQSGNSQESVTEQDSKDSTYSLSSTLTLSKADYEKHKVYACEVTHQGLSSPVTKSFNRGEC | 52.4 % of HeCon Ab | 79.7 % of HeCon Ab | 1.52
GpH7-A5/GpH7-B3 variant A330_12R/GpL16-k0 (antibody, human IgG1, kappa, He Ab; IgG1; mutation in one H chain only; also called He Ab) heavy 1: not shown heavy 2: not shown light: DIVMTQSPLSLPVTPGEPASISCQASESLVHSNRNTYLHWYLQKPGQSPQLLIYKVSNRFSGVPDRFSGSGSGTDFTLKISRVEAEDVGVYYCSQNTHVPPTFGQGTKVEIERTVAAPSVFIFPPSDEQLKSGTASVVCLLNNFYPREAKVQWKVDNALQSGNSQESVTEQDSKDSTYSLSSTLTLSKADYEKHKVYACEVTHQGLSSPVTKSFNRGEC | 84.8 % of HeCon Ab | 108 % of HeCon Ab | 1.27
